Results: patent US20240252613A1 (ACHELOIS BIOPHARMA, published 2024)

What was measured:
[1] = molecular target: T1, OX40L on transfected S293 cells (Mus musculus (Mouse), UniProt P43488 1-198); experiment: FACS, unlabeled MVP on transfected cells, detected with antibody
T1 construct: also called OX40 ligand
T1 sequence: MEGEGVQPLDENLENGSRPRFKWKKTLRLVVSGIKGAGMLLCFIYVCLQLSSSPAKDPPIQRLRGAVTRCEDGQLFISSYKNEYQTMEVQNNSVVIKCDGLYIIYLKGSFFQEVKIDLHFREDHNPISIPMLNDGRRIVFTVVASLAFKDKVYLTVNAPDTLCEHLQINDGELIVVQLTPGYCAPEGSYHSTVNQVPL

[2] = molecular target: T1, OX40L on transfected S293 cells; experiment: FACS, dye-labeled MVP on transfected S293 cells
[3] = molecular target: T2, ICOS ligand on transfected S293 cells (Mus musculus (Mouse), UniProt Q9JHJ8 47-322); experiment: FACS, dye-labeled MVP on transfected S293 cells
T2 sequence: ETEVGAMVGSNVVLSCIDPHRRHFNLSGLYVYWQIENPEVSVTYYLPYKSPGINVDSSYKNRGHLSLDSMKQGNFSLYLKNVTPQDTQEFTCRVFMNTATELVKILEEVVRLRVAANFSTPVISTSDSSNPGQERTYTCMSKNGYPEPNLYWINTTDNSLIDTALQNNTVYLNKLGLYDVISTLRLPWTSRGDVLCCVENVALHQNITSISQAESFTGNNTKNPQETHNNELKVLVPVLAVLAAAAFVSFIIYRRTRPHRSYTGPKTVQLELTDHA

[4] = molecular target: T3, 4-1BBL on transfected S293 cells (Mus musculus (Mouse), UniProt P41274 1-309); experiment: FACS, dye-labeled MVP on transfected S293 cells
T3 construct: also called 4-1BB ligand
T3 sequence: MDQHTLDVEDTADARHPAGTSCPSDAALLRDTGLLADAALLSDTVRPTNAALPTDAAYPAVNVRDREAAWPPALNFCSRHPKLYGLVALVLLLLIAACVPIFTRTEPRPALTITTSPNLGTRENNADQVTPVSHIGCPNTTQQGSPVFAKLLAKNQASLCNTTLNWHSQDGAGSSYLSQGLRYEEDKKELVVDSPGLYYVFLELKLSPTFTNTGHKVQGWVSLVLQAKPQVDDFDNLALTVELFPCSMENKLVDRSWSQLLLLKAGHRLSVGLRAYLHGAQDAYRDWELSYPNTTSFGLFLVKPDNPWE

[5] = molecular target: T4, GITR Ligand on transfected S293 cells (Mus musculus (Mouse), UniProt Q7TS55 1-173); experiment: FACS, unlabeled MVP on transfected cells, detected with antibody
T4 sequence: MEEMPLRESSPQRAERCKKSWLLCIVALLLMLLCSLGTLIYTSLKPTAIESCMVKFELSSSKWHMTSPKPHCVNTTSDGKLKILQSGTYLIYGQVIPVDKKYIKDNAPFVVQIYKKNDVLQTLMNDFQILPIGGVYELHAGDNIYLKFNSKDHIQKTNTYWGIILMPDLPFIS

[6] = molecular target: T4, GITR Ligand on transfected S293 cells; experiment: FACS, dye-labeled MVP on transfected S293 cells
[7] = molecular target: T5, CD2 on transfected S293 cells (Mus musculus (Mouse), UniProt P08920 23-344); experiment: FACS, unlabeled MVP on transfected cells, detected with antibody
T5 sequence: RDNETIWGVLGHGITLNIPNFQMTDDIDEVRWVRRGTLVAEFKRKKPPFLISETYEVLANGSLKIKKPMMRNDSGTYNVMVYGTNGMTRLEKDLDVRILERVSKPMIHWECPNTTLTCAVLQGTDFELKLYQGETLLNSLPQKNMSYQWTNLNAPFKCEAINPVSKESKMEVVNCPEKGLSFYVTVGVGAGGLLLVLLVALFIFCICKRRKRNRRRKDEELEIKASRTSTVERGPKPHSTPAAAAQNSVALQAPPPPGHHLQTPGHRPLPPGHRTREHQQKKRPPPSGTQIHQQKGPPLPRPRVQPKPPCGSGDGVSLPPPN

[8] = molecular target: T6, human TIM-3 on transfected S293 cells (human, UniProt Q8TDQ0 22-301); experiment: as above
T6 construct: also called HAVCR2
T6 sequence: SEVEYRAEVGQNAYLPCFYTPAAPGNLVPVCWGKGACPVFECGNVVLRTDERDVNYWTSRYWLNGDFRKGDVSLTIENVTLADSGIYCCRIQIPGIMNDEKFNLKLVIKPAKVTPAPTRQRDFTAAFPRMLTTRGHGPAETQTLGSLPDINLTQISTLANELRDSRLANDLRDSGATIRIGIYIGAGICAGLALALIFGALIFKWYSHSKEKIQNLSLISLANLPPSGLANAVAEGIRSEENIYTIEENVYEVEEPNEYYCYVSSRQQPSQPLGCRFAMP

[9] = molecular target: T6, human TIM-3 on transfected S293 cells; experiment: FACS, dye-labeled MVP on transfected S293 cells

B1: OX40-MVP (other)
chain: VTARRLNCVKHTYPSGHKCCRECQPGHGMVSRCDHTRDTLCHPCETGFYNEAVNYDTCKQCTQCNHRSGSELKQNCTPTQDTVCRCRPGTQPRQDSGYKLGVDCVPCPPGHFSPGNNQACKPWTNCTLSGKQTRHPASDSLDAVCEDRSLLATLLWETQRPTFRPTTVQSTTVWPRTSELPSPPTLVTPEGPADIIQADGWMCHASKWVTTCDFRWYGPKYITHSIRSFTPSVEQCKESIEQTKQGTWLNPGFPPQSCGYATVTDAEAVIVQVTPHHVLVDEYTGEWVDSQFINGKCSNYICPTVHNSTTWHSDYKVKGLCDSNLGMLDSDLHLSSKAQVFEHPHIQDAASQLPDDESLFFGDTGLSKNPIELVEGWFSSWKSSIASFFFIIGLIIGLFLVLRVGIHLCIKLKHTKKRQIYTDIEMNRLGK
notes: also called OX40-MVPs; Murine OX40-MVP
- staining shift of target+ over target- cells [1]: 1 log
- fluorescence shift relative to control MVPs [2]: ≥ 2 fold

B2: ICOS-MVP (other)
chain: EINGSADHRMFSFHNGGVQISCKYPETVQQLKMRLFREREVLCELTKTKGSGNAVSIKNPMLCLYHLSNNSVSFFLNNPDSSQGSYYFCSLSIFDPPPFQERNLSGGYLHIYESQLCCQLKLDIIQADGWMCHASKWVTTCDFRWYGPKYITHSIRSFTPSVEQCKESIEQTKQGTWLNPGFPPQSCGYATVTDAEAVIVQVTPHHVLVDEYTGEWVDSQFINGKCSNYICPTVHNSTTWHSDYKVKGLCDSNLGMLDSDLHLSSKAQVFEHPHIQDAASQLPDDESLFFGDTGLSKNPIELVEGWFSSWKSSIASFFFIIGLIIGLFLVLRVGIHLCIKLKHTKKRQIYTDIEMNRLGK
notes: also called ICOS-MVPs; Murine ICOS-MVP
- fluorescence shift relative to control MVPs [3]: ~2 fold

B3: 4-1BB-MVP (other)
chain: VQNSCDNCQPGTFCRKYNPVCKSCPPSTFSSIGGQPNCNICRVCAGYFRFKKFCSSTHNAECECIEGFHCLGPQCTRCEKDCRPGQELTKQGCKTCSLGTFNDQNGTGVCRPWTNCSLDGRSVLKTGTTEKDVVCGPPVVSFSPSTTISVTPEGGPGGHSLQVLTDIIQADGWMCHASKWVTTCDFRWYGPKYITHSIRSFTPSVEQCKESIEQTKQGTWLNPGFPPQSCGYATVTDAEAVIVQVTPHHVLVDEYTGEWVDSQFINGKCSNYICPTVHNSTTWHSDYKVKGLCDSNLGMLDSDLHLSSKAQVFEHPHIQDAASQLPDDESLFFGDTGLSKNPIELVEGWFSSWKSSIASFFFIIGLIIGLFLVLRVGIHLCIKLKHTKKRQIYTDIEMNRLGK
notes: also called 4-1BB-MVPs; Murine 4-1BB-MVP
- fluorescence shift relative to control MVPs [4]: ≥ 2 fold

B4: GITR-MVP (other)
chain: QPSVVEEPGCGPGKVQNGSGNNTRCCSLYAPGKEDCPKERCICVTPEYHCGDPQCKICKHYPCQPGQRVESQGDIVFGFRCVACAMGTFSAGRDGHCRLWTNCSQFGFLTMFPGNKTHNAVCIPEPLPTEQYGHIIQADGWMCHASKWVTTCDFRWYGPKYITHSIRSFTPSVEQCKESIEQTKQGTWLNPGFPPQSCGYATVTDAEAVIVQVTPHHVLVDEYTGEWVDSQFINGKCSNYICPTVHNSTTWHSDYKVKGLCDSNLGMLDSDLHLSSKAQVFEHPHIQDAASQLPDDESLFFGDTGLSKNPIELVEGWFSSWKSSIASFFFIIGLIIGLFLVLRVGIHLCIKLKHTKKRQIYTDIEMNRLGK
notes: also called GITR-MVPs; Murine GITR-MVP
- staining shift of target+ over target- cells [5]: 1 log
- fluorescence shift relative to control MVPs [6]: ≥ 2 log

B5: CD48-MVP (other)
chain: FQGHSIPDINATTGSNVTLKIHKDPLGPYKRITWLHTKNQKILEYNYNSTKTIFESEFKGRVYLEENNGALHISNVRKEDKGTYYMRVLRETENELKITLEVFDPVPKPSIEINKTEASTDSCHLRLSCEVKDQHVDYTWYESSGPFPKKSPGYVLDLIVTPQNKSTFYTCQVSNPVSSKNDTVYFTLPCDLARSSGVCWTATWLVVTTLIIHRILLTIIQADGWMCHASKWVTTCDFRWYGPKYITHSIRSFTPSVEQCKESIEQTKQGTWLNPGFPPQSCGYATVTDAEAVIVQVTPHHVLVDEYTGEWVDSQFINGKCSNYICPTVHNSTTWHSDYKVKGLCDSNLGMLDSDLHLSSKAQVFEHPHIQDAASQLPDDESLFFGDTGLSKNPIELVEGWFSSWKSSIASFFFIIGLIIGLFLVLRVGIHLCIKLKHTKKRQIYTDIEMNRLGK
notes: also called CD48-MVPs; Murine CD48-MVP
- staining shift of target+ over target- cells [7]: > 1 log

B6: human Ceacam1-MVP (other)
chain: QLTTESMPFNVAEGKEVLLLVHNLPQQLFGYSWYKGERVDGNRQIVGYAIGTQQATPGPANSGRETIYPNASLLIQNVTQNDTGFYTLQVIKSDLVNEEATGQFHVYPELPKPSISSNNSNPVEDKDAVAFTCEPETQDTTYLWWINNQSLPVSPRLQLSNGNRTLTLLSVTRNDTGPYECEIQNPVSANRSDPVTLNVTYGPDTPTISPSDTYYRPGANLSLSCYAASNPPAQYSWLINGTFQQSTQELFIPNITVNNSGSYTCHANNSVTGCNRTTVKTIIVTELSPVVAKPQIKASKTTVTGDKDSVNLTCSTNDTGISIRWFFKNQSLPSSERMKLSQGNTTLSINPVKREDAGTYWCEVFNPISKNQSDPIMLNVNYNALPQENGLSPGIIQADGWMCHASKWVTTCDFRWYGPKYITHSIRSFTPSVEQCKESIEQTKQGTWLNPGFPPQSCGYATVTDAEAVIVQVTPHHVLVDEYTGEWVDSQFINGKCSNYICPTVHNSTTWHSDYKVKGLCDSNLGMLDSDLHLSSKAQVFEHPHIQDAASQLPDDESLFFGDTGLSKNPIELVEGWFSSWKSSIASFFFIIGLIIGLFLVLRVGIHLCIKLKHTKKRQIYTDIEMNRLGK
notes: also called Ceacam1-MVPs
- staining shift of target+ over target- cells [8]: ~2 fold
- fluorescence shift relative to control MVPs [9]: ~2 fold
